Sequences and labels used below:
B1: Recombinant Cyclin H (CCNH) protein with a C-HIS tag (natural protein)
chain: MYHNSSQKRHWTFSSEEQLARLRADANRKFRCKAVANGKVLPNDPVFLEPHEEMTLCKYYEKRLLEFCSVFKPAMPRSVVGTACMYFKRFYLNNSVMEYHPRIIMLTCAFLACKVDEFNVSSPQFVGNLRESPLGQEKALEQILEYELLLIQQLNFHLIVHNPYRPFEGFLIDLKTRYPILENPEILRKTADDFLNRIALTDAYLLYTPSQIALTAILSSASRAGITMESYLSESLMLKENRTCLSQLLDIMKSMRNLVKKYEPPRSEEVAVLKQKLERCHSAELALNVITKKRKGYEDDDYVSKKSKHEEEEWTDDDLVESL

Holding throughout (assay): SPR
In general terms: SPR reads the build-up and loss of mass on a sensor chip optically.

The target in test [1] is B1.
The target in test [2] is B1.
Another test deals with Ece1-III.

The source of these data is paper PMC10899660 (2024).

In the case of DVAPAAPAAPADQAPTVPAPQEFNTAITKR [Ece1-II, synthetic peptide], the koff – broadly, the first-order rate constant of dissociation – in test [1] came out at 0.00415 s⁻¹. The Kd – broadly, a measure of binding affinity in units of concentration – in test [2] was determined as 9.13 µM.
Consider DGANDDVANAVVRLPEIVARVATGVQQSIENAKR [Ece1-V, synthetic peptide], for which the koff in test [1] came out at 0.000719 s⁻¹. In test [2], the Kd worked out at 3.16 µM.
The matching figures for EDIDSVVAGIIADMPFVVRAVDTAMTSVASTKR [Ece1-IV, synthetic peptide]: 0.000297 s⁻¹ and 5.98 µM.
On to B1, for which, in the test with Ece1-III, the Kd was 0.0172 µM and the koff amounted to 0.00171 s⁻¹.
